Measurements reported in patent US20240400663A1 (Regeneron, published 2024).

Key:
Assay in all cases: cell-based or functional assay
[1] = molecular target: T1, PfRH5 of Plasmodium falciparum strain Dd2 (on live parasites) (Plasmodium falciparum)
[2] = molecular target: PfRH5 of Plasmodium falciparum strain W2-mef (on live parasites) (Plasmodium falciparum)
[3] = molecular target: PfRH5 of Plasmodium falciparum strain RF7 (on live parasites) (Plasmodium falciparum)
[4] = molecular target: T2, PfRH5 of Plasmodium falciparum strain 7G8 (on live parasites) (Plasmodium falciparum)
[5] = molecular target: PfRH5 of Plasmodium falciparum strain D10 (on live parasites) (Plasmodium falciparum)
[6] = molecular target: T1, PfRH5 of Plasmodium falciparum strain …; remark: listed apart in the source
[7] = molecular target: PfRH5 of Plasmodium falciparum strain Cam3.II (on live parasites) (Plasmodium falciparum)
[8] = molecular target: T3, PfRH5 of Plasmodium falciparum strain FCR-1/FVO (on live parasites) (Plasmodium falciparum)
[9] = molecular target: PfRH5 of Plasmodium falciparum strain HB3 (on live parasites) (Plasmodium falciparum)
[10] = molecular target: T2, PfRH5 of Plasmodium falciparum strain …; remark: listed apart in the source
[11] = molecular target: T3, PfRH5 of Plasmodium falciparum strain …; remark: listed apart in the source

Binder | Maximum growth inhibition (%) Dd2 [1] | Max growth inhibition (%) W2-mef [2] | Max growth inhibition (%) RF7 [3] | Max growth inhibition (%) 7G8 [4] | Max growth inhibition (%) D10 [5] | Max growth inhibition (%) Dd2 [6] | Max growth inhibition (%) Cam3.II [7] | Max growth inhibition (%) FCR-1/FVO [8] | Max growth inhibition (%) HB3 [9] | Max growth inhibition (%) 7G8, no chloroquine [10] | Percent Maximum Growth Inhibition, FCR-1/FVO, mAb (6.67 µM) + AHIS (10%) [11] | Percent Maximum Growth Inhibition, FCR-1/FVO, mAb (6.67 µM) + ANS (10%) [11] | Percent Maximum Growth Inhibition, FCR-1/FVO, mAb (6.67 µM) + HHIS (10%) [11] | Percent Maximum Growth Inhibition, FCR-1/FVO, mAb (6.67 µM) + HNS (10%) [11] | Percent Maximum Growth Inhibition, FCR-1/FVO, mAb (6.67 µM) + No serum [11]
H1H29104P (antibody, V domains shown) VH: EVQLVESGGGLVQPGRSLRLSCAASGFRFDDYAMHWVRQAPGKGLEWVSGINWNSGGKGYADSVQGRFTISRDNAKNSLYLQMNSLRTEDTALYYCAKDRGIAARLLSRDAFDMWGQGTMVTVSS VL: DIQLTQSPSFLSASVGDRVTITCWASQDVSSYLAWYQQKPGKSPKLLIFAASTLQGGIPSRFSGSGSGTEFTLTISSLRPEDFATYYCQHLNTYPYTFGQGTKLEIKR | 54.1% | 47.4% | 23.6% | 35.2% | 55.7% | 61.3% | 50% | 67.4% | 39.8% | – | – | – | – | – | –
H1H29100P (antibody, V domains shown) VH: QLQLQESGPGLVKPSETLSLTCTVSGGSISSSSYYWGWIRQPPGKGLEWIGIIYYSGSTYYNPSLKSRVTISVDTSKNQFSLKLSSVTAADTAVYYCARQDREALFDYWGQGTLVTVSS VL: EIVLTQSPDFQSVTPKEKVTITCRASQRIGSSLHWYQQKPDQSPKLLIKYASQSFSGVPSRFSGSGSGTDFTLTINSLEAEDAATYYCHQSSTLPTFGQGTRLEIKR | 65.7% | 67.3% | 17% | 66.4% | 81.7% | 64.6% | 52.4% | 66.9% | 62.6% | 48.9% | 82.5% | 73.2% | 81.9% | 82.4% | 83.9%
H1H29089P (antibody, V domains shown) VH: EVQLVQSGAEVKKPGESLKISCKGSGYSFTSYWIVWVRQMPGKGLEWMGIIYPGDSDTRYSPSFQGQVTISADKSISTAYLQWSSLKASDTAMYYCARQDITGTTGFDYWGQGTLVTVSS VL: DIQMTQSPSSLSASVGDRVTITCRASQSIRNYLNWYQQKPGKAPKLLIYAASSLQSGVPSRFSGSGSGTDFTLTISSLQPEDFATYFCQQSYSTPFTFGPGTKVDIKR | – | 66.4% | 28.9% | 70.1% | 82.3% | 71.3% | 56.2% | 66% | 59.1% | 51.1% | 84.3% | 75.7% | 85.2% | 85% | 85.3%
H1H29127P (antibody, V domains shown) VH: QVQLVESGGGVVQPGRSLRLSCAASGFTFSSYGMHWVRQAPGKGLEWVAAIWYDGSNKYYADSVKGRFTISRDNSKNTLYLQMNSLRAEDTAVYFCARGEHYYGSGPFDPWGQGTLVTVSS VL: DIQMTQSPSSLSASVGDRVTITCRASQSISNYLNWYQQKPGKAPKLLIFAASSLQSGVPSRFSGSGSGTDFTLTISSLQPEDFATYYCQQSYSSPLTFGGGTKVEIKR | 56.9% | 53.6% | 25.7% | 61.2% | 74.4% | 64.7% | 47% | 61.1% | 59.4% | – | – | – | – | – | –
H1H29143P (antibody, V domains shown) VH: EVQLVESGGGLVQPGGSLRLSCAASGFTFNNYAMSWVRQAPGRGLEWVSAISGSGDSTYYSDSVKGRFTISRDNSKNTLYLQMNSLRAEDTAVYYCAKDQGLYYYGSGSFDYWGQGTLVTVSS VL: not shown | 56% | 58.3% | – | 61.9% | 79.4% | 62.7% | 53.2% | 67.2% | 60.9% | – | – | – | – | – | –
H1H29187P2 (antibody, V domains shown) VH: QVQLVESGGGVVQPGRFLRLSCAASGFTFSNSGMHWVRQAPGKGLEWVAGIWHDGSYKYYVDSVKGRFTISRDNSKNTLFLQMNSLRAEDTAVYYCARDDYYASGTSVDVWGQGTTVTVSS VL: not shown | – | 67.3% | 32.7% | – | 79.6% | 66% | 49.2% | 72.2% | 63.9% | 49.3% | 89.4% | 80.1% | 85.4% | 85.9% | 85.3%
H1H29147P2 (antibody, V domains shown) VH: QVQLVQSGAEVKNPGSSVKVSCKASGGTFSSYTINWVRQAPGQGLEWMGGIIPLYGTANYAQKFQARVTISTDESTNTAYMELSNLRFEDTAVYFCASTLELRAFDAFDIWGQGTMVTVSS VL: not shown | – | 64.7% | 31.4% | 65.2% | 81.4% | 65.3% | 51.9% | 70.3% | 64.8% | 47.3% | 86.2% | 80.3% | 83.4% | 85.6% | 84.1%
